Test results published in paper PMC5600724.

Target: recombinant Plasmodium vivax apical membrane antigen 1 ectodomain (rPvAMA1) (Plasmodium vivax)
Assay: ELISA; phage ELISA: wells coated with rPvAMA1 (100 ug/ml in 0.1 M NaHCO3, pH 8.6), blocked with BSA; ~10^9 phage in TBST, 2 h at room temperature; HRP anti-M13 antibody, ABTS, A405; fold = absorbance on target / absorbance on BSA-blocked well

Binder	fold of binding signal (A405 on rPvAMA1 over A405 on BSA) [fold]
WHWSWWNPNQLT [PdV2 phage-displayed dodecapeptide]	3.5
TSVSYINNRHNL [PdV3 phage-displayed dodecapeptide]	3.1
